Data as given in the supplement of paper PMC7877785.
± gives the uncertainty stated by the source.

Experiment: self-splicing fitness, log relative to wild type (ln ratio); higher = more splicing; Tetrahymena group I intron in knt gene, E. coli kanamycin selection, DiMSum; sequences stand for … in CUCUCU…GGAGGGAAAAGUUAUCAGGCAUGCACCUGGUAGCUAGUCUUUAAACCAAUAGAUUGCAUCGGUUUAAAAGGCAAGACCGUCAAAUUGCGGGAAAGGGGUCAACAGCCGUUCAGUACCAAGUCUCAGGGGAAACUUUGAGAUGGCCUUGCAAAGGGUAUGGUAAUAAGCUGACGGACAUGGUCCUAACCACGCAGCCAAGUCCUAAGUCAACAGAUCUUCUGUUGAUAUGGAUGCAGUUCACAGACUAAAUGUCGGUCGGGGAAGAUGUAUUCUUCUCAUAAGAUAUAGUCGGACCUCUCCUUAAUGGGAGCUAGCGGAUGAAGUGAUGCAACACUGGAGCCGCUGGGAACUAAUUUGUAUGCGAAAGUAUAUUGAUUAGUUUUGGAGUACUCGUGGUCG
Outline: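 The eight P1ex-region nucleotides of an intron in the knt kanamycin-resistance gene on pET-22b(+) were all randomised and the library put into E. coli BL21(DE3). Six replicate transformations were grown overnight at 37°C or 30°C on LB agar with or without 25 μg/mL kanamycin, together with 100 μg/mL carbenicillin, 50 μM IPTG and 0.2% rhamnose. Colonies were pooled and amplicon-sequenced on an Illumina HiSeq 2500. Fitness from DiMSum is the error-weighted combination of wild-type-normalised replicate fold changes, kanamycin over none.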

Sequence	self-splicing fitness (ln) (30 °C)	self-splicing fitness (ln) (37 °C)
CACAAGCAAUAUUACGCGAA	-3.43 ± 0.17	-2.44 ± 0.14
GAUUAGCAAUAUUACGGCCA	-1.41 ± 0.19	0.41 ± 0.21
ACAAAGCAAUAUUACGAACU	-0.4 ± 0.055	0.248 ± 0.075
CGGCAGCAAUAUUACGUUAC	-3.4 ± 0.2	-3.3 ± 0.33
UGACAGCAAUAUUACGUUUG	-2 ± 0.071	-1.03 ± 0.081
AUUCAGCAAUAUUACGCAUG	-1.3 ± 0.082	-0.553 ± 0.11
GGUAAGCAAUAUUACGAAAU	-1.94 ± 0.34	-0.431 ± 0.32
AUUCAGCAAUAUUACGGACU	0.0759 ± 0.063	0.414 ± 0.083
GUUGAGCAAUAUUACGGACG	–	-1.42 ± 0.29
UAUGAGCAAUAUUACGUAGA	-2.7 ± 0.18	-2.46 ± 0.2
UUAUAGCAAUAUUACGAAUG	-2.43 ± 0.16	-0.727 ± 0.17
CGUAAGCAAUAUUACGUCAU	-3.23 ± 0.17	-2.38 ± 0.17
UCCGAGCAAUAUUACGCAAA	-3.59 ± 0.33	-2.51 ± 0.31
AUAUAGCAAUAUUACGAGCA	-2.32 ± 0.24	-0.917 ± 0.18
CUAAAGCAAUAUUACGACAA	-2.42 ± 0.15	-1.2 ± 0.19
UCGGAGCAAUAUUACGUAGU	–	-0.551 ± 0.29
CUCCAGCAAUAUUACGAUAC	-3.57 ± 0.31	-1.94 ± 0.32
UAUUAGCAAUAUUACGGCAG	-0.281 ± 0.085	-0.424 ± 0.12
GGACAGCAAUAUUACGAGAC	-2.05 ± 0.33	-1.1 ± 0.16
UUGGAGCAAUAUUACGGCAA	-0.805 ± 0.23	-0.671 ± 0.32
ACCAAGCAAUAUUACGAUUA	-2.23 ± 0.11	-1.03 ± 0.085
UCUAAGCAAUAUUACGGGCU	-4.19 ± 0.4	-1.84 ± 0.3
CAUGAGCAAUAUUACGACAC	–	-1.19 ± 0.31
UCUGAGCAAUAUUACGAGAG	-4.12 ± 0.26	-2.69 ± 0.45
UCUUAGCAAUAUUACGGGCC	-3.6 ± 0.32	-1.41 ± 0.27
UGUCAGCAAUAUUACGAGUG	-1.07 ± 0.085	-0.261 ± 0.094

Sequence	self-splicing fitness (ln) (30 °C)	self-splicing fitness (ln) (37 °C)
GGUAAGCAAUAUUACGCCUG	–	-1.53 ± 0.33
GGUGAGCAAUAUUACGUGAC	-3.14 ± 0.22	-0.938 ± 0.22
UCGGAGCAAUAUUACGGAGA	-3.67 ± 0.21	-1.49 ± 0.14
GGCAAGCAAUAUUACGAUAA	-1.23 ± 0.11	0.298 ± 0.13
CGACAGCAAUAUUACGCAGA	-2.61 ± 0.1	-2.06 ± 0.1
CCUUAGCAAUAUUACGUGCU	-3.4 ± 0.18	-2.83 ± 0.31
UACCAGCAAUAUUACGGUUG	-1.64 ± 0.067	-0.791 ± 0.084
UUGAAGCAAUAUUACGUCGC	-3.48 ± 0.23	-1.49 ± 0.24
GAUGAGCAAUAUUACGCAGG	–	-2.24 ± 0.43
CGGUAGCAAUAUUACGAAGU	-2.86 ± 0.3	-1.85 ± 0.25
GUCGAGCAAUAUUACGACUA	-1.67 ± 0.23	-1.28 ± 0.18
UUAUAGCAAUAUUACGGCGU	-2.88 ± 0.34	-1.7 ± 0.23
AGGCAGCAAUAUUACGCCAC	-3.45 ± 0.18	-2.48 ± 0.3
GUACAGCAAUAUUACGGGGU	-3.29 ± 0.16	-2.34 ± 0.11
UGGAAGCAAUAUUACGUCUA	-0.281 ± 0.15	-0.741 ± 0.18
UCCAAGCAAUAUUACGUGUA	-0.565 ± 0.043	0.504 ± 0.057
GGGCAGCAAUAUUACGUACU	-0.53 ± 0.098	-0.834 ± 0.11
GAAAAGCAAUAUUACGCGGU	-3.4 ± 0.21	-1.21 ± 0.16
UCAUAGCAAUAUUACGGAGG	-3.54 ± 0.31	-2.82 ± 0.2
AGGUAGCAAUAUUACGCAGU	-2.979 ± 0.021	-1.68 ± 0.035
AAGCAGCAAUAUUACGACUG	-2.67 ± 0.12	-1.8 ± 0.14
CCGGAGCAAUAUUACGGACU	–	-1.56 ± 0.28
CUCUAGCAAUAUUACGCACA	-3.24 ± 0.4	-3.82 ± 0.46
GCUAAGCAAUAUUACGGCGC	-1.55 ± 0.11	-0.159 ± 0.16
UGUCAGCAAUAUUACGACCG	-0.0146 ± 0.18	0.122 ± 0.25
CUUAAGCAAUAUUACGAAUC	-2.97 ± 0.23	–

Sequence	self-splicing fitness (ln) (30 °C)	self-splicing fitness (ln) (37 °C)
CGACAGCAAUAUUACGCAAU	-4.5 ± 0.33	-2.81 ± 0.22
GCAAAGCAAUAUUACGCCGU	-2.85 ± 0.21	-2.46 ± 0.23
AUCCAGCAAUAUUACGUUUC	-4.16 ± 0.25	-2.05 ± 0.2
AAAGAGCAAUAUUACGAAAU	-2.67 ± 0.23	-2.4 ± 0.24
AUACAGCAAUAUUACGAAAA	-2.58 ± 0.26	-1.4 ± 0.18
AUGUAGCAAUAUUACGUAGU	-2.89 ± 0.18	-1.42 ± 0.15
CUACAGCAAUAUUACGGGCA	-2.76 ± 0.18	-2.21 ± 0.21
GCAGAGCAAUAUUACGCGGA	-3.11 ± 0.34	-2.91 ± 0.35
AAUAAGCAAUAUUACGCAUA	-1.59 ± 0.16	-0.617 ± 0.16
AGGUAGCAAUAUUACGGAGC	-4.047 ± 0.034	-2.5 ± 0.04
ACAGAGCAAUAUUACGCCAG	-2.37 ± 0.35	-1.71 ± 0.49
CAGGAGCAAUAUUACGCUUG	-3.59 ± 0.21	-2.48 ± 0.3
UGGGAGCAAUAUUACGUCGA	-1.85 ± 0.39	-1.21 ± 0.28
GAGAAGCAAUAUUACGUAUA	-2.51 ± 0.14	-1.71 ± 0.14
AAACAGCAAUAUUACGAGAC	-3.96 ± 0.25	-2.66 ± 0.25
GGAUAGCAAUAUUACGCCGU	-1.74 ± 0.25	-0.441 ± 0.2
GCGGAGCAAUAUUACGGCUC	-2.05 ± 0.36	–
ACGUAGCAAUAUUACGGUAG	-3.11 ± 0.15	-2.25 ± 0.2
AUGGAGCAAUAUUACGAGGG	-3.96 ± 0.35	-2.55 ± 0.42
CUGCAGCAAUAUUACGUCGG	-3.32 ± 0.18	-1.98 ± 0.2
ACUGAGCAAUAUUACGUCUC	-3.61 ± 0.2	-3.51 ± 0.33
GAAAAGCAAUAUUACGGAGU	-3.18 ± 0.15	-2.11 ± 0.15
GGUCAGCAAUAUUACGUGGA	-1.82 ± 0.14	-1.58 ± 0.14
CACGAGCAAUAUUACGACCG	-0.0895 ± 0.089	0.125 ± 0.12
AUAUAGCAAUAUUACGACAC	-1.5 ± 0.23	-0.312 ± 0.29
GCCGAGCAAUAUUACGCCAA	-1.62 ± 0.43	–
